# Reference: publication PMC5290276, “A quantized mechanism for activation of pannexin channels” (Nature Communications, 2017)
# B1: full-length human PANX1 (Pannexin 1) with a C-terminal enterokinase cleavage site and hexahistidine tag (natural protein, UniProt Q96RD7-1 1-426, looked up)
# chain: MAIAQLATEYVFSDFLLKEPTEPKFKGLRLELAVDKMVTCIAVGLPLLLISLAFAQEISIGTQISCFSPSSFSWRQAAFVDSYCWAAVQQKNSLQSESGNLPLWLHKFFPYILLLFAILLYLPPLFWRFAAAPHICSDLKFIMEELDKVYNRAIKAAKSARDLDMRDGACSVPGVTENLGQSLWEVSESHFKYPIVEQYLKTKKNSNNLIIKYISCRLLTLIIILLACIYLGYYFSLSSLSDEFVCSIKSGILRNDSTVPDQFQCKLIAVGIFQLLSVINLVVYVLLAPVVVYTLFVPFRQKTDVLKVYEILPTFDVLHFKSEGYNDLSLYNLFLEENISEVKSYKCLKVLENIKSSGQGIDPMLLLTNLGMIKMDVVDGKTPMSAEMREEQGNQTAELQGMNIDSETKANNGEKNARQRLLDSSC
# notes: Pannexin 1 (PANX1), human, NM_015368, isoform 1, 426 a.a., full length; No removal of the tag by enterokinase is described; The purified protein was probed with anti-pentaHis in a purity western; also called full-length PANX1; source: Sf9 (baculovirus), purified from membranes (TALON cobalt resin, amphipol A8-35 exchange, SEC)
# Tests used:
# [1] = target: 3(2CT)-GFP, GFP-tagged trimeric concatemer of two full-length PANX1 subunits and a C-terminally truncated PANX1 subunit (human) (UniProt Q96RD7); test: cross-linking; HEK293T cells surface-biotinylated (Sulfo-NHS-LC-Biotin, 4 °C, 30 min), then cross-linked with 1.8 mM disuccinimidyl suberate at 4 °C for 1 h; streptavidin precipitation and western blot; not quantitative according to the paper
# [2] = target: 3(2CT)-GFP, GFP-tagged trimeric concatemer of two full-length PANX1 subunits and a C-terminally truncated PANX1 subunit (human) (UniProt Q96RD7); test: single-molecule photobleaching (TIRF microscopy), subunit counting; GFP-tagged concatemers in the plasma membrane of HEK293T cells 5-7 h after transfection; photobleaching steps fitted by binomial distributions assuming ~65% of GFP is fluorescent
# [3] = target: 2(1CT)-GFP, GFP-tagged tandem dimer linking a full-length PANX1 subunit to a C-terminally truncated PANX1 subunit (human) (UniProt Q96RD7); test: as above
# [4] = target: caspase 3-cleaved PANX1 (C-terminally cleaved human PANX1) (human); test: SEC; purified PANX1 in amphipol A8-35 on an SRT-C 300 column (Sepax); oligomer size judged from the elution volume
# [5] = target: the molecule itself; test: as above
molecule,measurement,setting,value
"3(2CT)-GFP, GFP-tagged trimeric concatemer of two full-length PANX1 subunits and a C-terminally truncated PANX1 subunit (from UniProt Q96RD7 1-426; Q96RD7 1-426)",stoichiometry N,[1],2
same,stoichiometry N,[2],2
"2(1CT)-GFP, GFP-tagged tandem dimer linking a full-length PANX1 subunit to a C-terminally truncated PANX1 subunit (from UniProt Q96RD7 1-426)",stoichiometry N,[3],3
caspase 3-cleaved PANX1 (C-terminally cleaved human PANX1) (domain or fragment),stoichiometry N,[4],6
B1,stoichiometry N,[5],6
